Experimental data reported in PMC2607196 (Molecular cell, 2008).

T1: gp130/CNTF-Rα/CNTF ternary complex (human, UniProt P26441 1-200; P40189 23-619)
T1 chain 1: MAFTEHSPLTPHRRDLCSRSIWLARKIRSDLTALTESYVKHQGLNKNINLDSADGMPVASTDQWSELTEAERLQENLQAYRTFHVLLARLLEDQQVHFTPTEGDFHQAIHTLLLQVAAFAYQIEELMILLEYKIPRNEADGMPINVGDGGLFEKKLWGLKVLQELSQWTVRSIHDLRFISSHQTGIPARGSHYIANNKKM
T1 chain 2: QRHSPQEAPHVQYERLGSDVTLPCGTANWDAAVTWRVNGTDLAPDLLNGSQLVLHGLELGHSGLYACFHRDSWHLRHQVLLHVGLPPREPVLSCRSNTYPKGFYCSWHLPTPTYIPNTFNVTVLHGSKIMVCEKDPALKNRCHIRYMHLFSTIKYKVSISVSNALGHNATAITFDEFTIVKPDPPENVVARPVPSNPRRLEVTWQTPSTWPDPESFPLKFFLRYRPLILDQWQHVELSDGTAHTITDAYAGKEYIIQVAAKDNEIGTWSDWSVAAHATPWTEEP
T1 chain 3: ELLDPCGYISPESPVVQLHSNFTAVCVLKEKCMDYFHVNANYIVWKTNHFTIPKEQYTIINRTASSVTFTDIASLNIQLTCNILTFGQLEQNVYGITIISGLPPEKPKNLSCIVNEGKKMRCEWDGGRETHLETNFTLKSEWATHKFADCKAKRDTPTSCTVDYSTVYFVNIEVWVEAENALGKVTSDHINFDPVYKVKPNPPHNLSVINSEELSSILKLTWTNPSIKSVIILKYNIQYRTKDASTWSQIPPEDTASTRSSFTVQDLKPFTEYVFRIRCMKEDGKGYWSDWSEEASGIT

B1: Ciliary Neurotrophic Factor (CNTF) (ligand, human, UniProt P26441 1-200, looked up)
chain: T1 chain 1
B2: Leukemia Inhibitory Factor Receptor LIF-R (D1-D5) (domain or fragment, human)
chain: DLKCVTNNLQVWNCSWKAPSGTGRGTDYEVCIENRSRSCYQLEKTSIKIPALSHGDYEITINSLHDFGSSTSKFTLNEQNVSLIPDTPEILNLSADFSTSTLYLKWNDRGSVFPHRSNVIWEIKVLRKESMELVKLVTHNTTLNGKDTLHHWSWASDMPLECAIHFVEIRCYIDNLHFSGLEEWSDWSPVKNISWIPDSQTKVFPQDKVILVGSDITFCCVSQEKVLSALIGHTNCPLIHLDGENVAIKIRNISVSASSGTNVVFTTEDNIFGTVIFAGYPPDTPQQLNCETHDLKEIICSWNPGRVTALVGPRATSYTLVESFSGKYVRLKRAEAPTNESYQLLFQMLPNQEIYNFTLNAHNPLGRSQSTILVNITEKVYPHTPTSFKVKDINSTAVKLSWHLPGNFAKINFLCEIEIKKSNSVQEQRNVTIKGVENSSYLVALDKLNPYTLYTFRIRCSTETFWKWSKWSNKKQHLTTEAS

How the values were obtained:
[1] = target: B2; experiment: ITC
[2] = target: T1, gp130/CNTF-Rα/CNTF ternary complex; experiment: ITC

Row | binding result [1] | stoichiometry N [2] | Binder
1 | binds |  | B1
2 |  | 1 | B2
